Test results as given in the supplement of paper PMC11246515.
± gives the standard deviation of the averaged measurements.

Experiment: total protein half-life in vivo (active degradation + dilution); higher = more stable protein
[1] = E. coli NCM3722 delta-clpP delta-lon delta-hslV, growth: N-lim chemostat, doubling time 6 h
[2] = E. coli NCM3722 delta-clpP, growth: N-lim chemostat, doubling time 6 h
[3] = E. coli NCM3722 delta-hslV, growth: N-lim chemostat, doubling time 6 h
[4] = E. coli NCM3722 delta-lon, growth: N-lim chemostat, doubling time 6 h
[5] = E. coli NCM3722 delta-smpB, growth: N-lim chemostat, doubling time 6 h
[6] = wild type E. coli NCM3722, growth: C-lim chemostat, doubling time 3 h
[7] = wild type E. coli NCM3722, growth: C-lim chemostat, doubling time 6 h
[8] = wild type E. coli NCM3722, growth: C-lim chemostat, doubling time 12 h
[9] = wild type E. coli NCM3722, growth: N-lim chemostat, doubling time 6 h
[10] = wild type E. coli NCM3722, growth: N-lim chemostat, doubling time 12 h
[11] = wild type E. coli NCM3722, growth: P-lim chemostat, doubling time 6 h
[12] = wild type E. coli NCM3722, growth: P-lim chemostat, doubling time 12 h

Sequence	total protein half-life in vivo [1]	total protein half-life in vivo [2]	total protein half-life in vivo [3]	total protein half-life in vivo [4]	total protein half-life in vivo [5]	total protein half-life in vivo [6]	total protein half-life in vivo [7]	total protein half-life in vivo [8]	total protein half-life in vivo [9]	total protein half-life in vivo [10]	total protein half-life in vivo [11]	total protein half-life in vivo [12]
MRKIKIGLALGSGAARGWSHIGVINALKKVGIEIDIVAGCSIGSLVGAAYACDRLSALEDWVTSFSYWDVLRLMDLSWQRGGLLRGERVFNQYREIMPETEIENCSRRFAAVATNLSTGRELWFTEGDLHLAIRASCSIPGLMAPVAHNGYWLVDGAVVNPIPISLTRALGADIVIAVDLQHDAHLMQQDLLSFNVSEENSENGDSLPWHARLKERLGSITTRRAVTAPTATEIMTTSIQVLENRLKRNRMAGDPPDILIQPVCPQISTLDFHRAHAAIAAGQLAVERKMDELLPLVRTNI [P0AFR0]	5 ± 0.29 h	4.67 ± 0.2 h	4.923 ± 0.045 h	5.26 h	4.51 ± 0.14 h	2.951 ± 0.017 h	5.25 ± 0.36 h	10.6 ± 1.2 h	5.61 ± 0.09 h	8.89 ± 1.5 h	5.659 ± 0.02 h	11.7 ± 0.5 h
MRKILITGGAGFIGSALVRYIINETSDAVVVVDKLTYAGNLMSLAPVAQSERFAFEKVDICDRAELARVFTEHQPDCVMHLAAESHVDRSIDGPAAFIETNIVGTYTLLEAARAYWNALTEDKKSAFRFHHISTDEVYGDLHSTDDFFTETTPYAPSSPYSASKASSDHLVRAWLRTYGLPTLITNCSNNYGPYHFPEKLIPLMILNALAGKSLPVYGNGQQIRDWLYVEDHARALYCVATTGKVGETYNIGGHNERKNLDVVETICELLEELAPNKPHGVAHYRDLITFVADRPGHDLRYAIDASKIARELGWLPQETFESGMRKTVQWYLANESWWKQVQDGSYQGERLGLKG	5.27 ± 0.23 h	5.27 ± 0.67 h	5.1 ± 0.12 h	5.96 ± 0.64 h	4.74 ± 0.24 h	–	6.39 ± 0.12 h	11.7 ± 1.8 h	4.95 ± 0.23 h	10.7 ± 2.9 h	6.4 ± 0.31 h	12.61 ± 0.0068 h
MRKLWNALRRPSARWSVLALVAIGIVIGIALIVLPHVGIKVTSTTEFCVSCHSMQPVYEEYKQSVHFQNASGVRAECHDCHIPPDIPGMVKRKLEASNDIYQTFIAHSIDTPEKFEAKRAELAEREWARMKENNSATCRSCHNYDAMDHAKQHPEAARQMKVAAKDNQSCIDCHKGIAHQLPDMSSGFRKQFDELRASANDSGDTLYSIDIKPIYAAKGDKEASGSLLPASEVKVLKRDGDWLQIEITGWTESAGRQRVLTQFPGKRIFVASIRGDVQQQVKTLEKTTVADTNTEWSKLQATAWMKKGDMVNDIKPIWAYADSLYNGTCNQCHGAPEIAHFDANGWIGTLNGMIGFTSLDKREERTLLKYLQMNASDTAGKAHGDKKEEK	–	–	–	5.27 h	–	–	–	–	–	9.72 h	–	10.5 h
MRKNTYAMRYVAGQPAERILPPGSFASIGQALPPGEPLSTEERIRILVWNIYKQQRAEWLSVLKNYGKDAHLVLLQEAQTTPELVQFATANYLAADQVPAFVLPQHPSGVMTLSAAHPVYCCPLREREPILRLAKSALVTVYPLPDTRLLMVVNIHAVNFSLGVDVYSKQLLPIGDQIAHHSGPVIMAGDFNAWSRRRMNALYRFAREMSLRQVRFTDDQRRRAFGRPLDFVFYRGLNVSEASVLVTRASDHNPLLVEFSPGKPDK [P0A8U2]	–	4.41 h	2.48 ± 0.64 h	3.2 ± 0.29 h	2.65 ± 0.35 h	1.62 ± 0.14 h	2.47 ± 0.035 h	3.514 ± 0.023 h	2.76 ± 0.092 h	4.14 ± 0.052 h	2.42 ± 0.055 h	3.83 ± 0.2 h
MRKTVAFGFVGTVLDYAGRGSQRWSKWRPTLCLCQQESLVIDRLELLHDARSRSLFETLKRDIASVSPETEVVSVEIELHNPWDFEEVYACLHDFARGYEFQPEKEDYLIHITTGTHVAQICWFLLAEARYLPARLIQSSPPRKKEQPRGPGEVTIIDLDLSRYNAIASRFAEERQQTLDFLKSGIATRNPHFNRMIEQIEKVAIKSRAPILLNGPTGAGKSFLARRILELKQARHQFSGAFVEVNCATLRGDTAMSTLFGHVKGAFTGARESREGLLRSANGGMLFLDEIGELGADEQAMLLKAIEEKTFYPFGSDRQVSSDFQLIAGTVRDLRQLVAEGKFREDLYARINLWTFTLPGLRQRQEDIEPNLDYEVERHASLTGDSVRFNTEARRAWLAFATSPQATWRGNFRELSASVTRMATFATSGRITLDVVEDEINRLRYNWQESRPSALTALLGAEAENIDLFDRMQLEHVIAICRQAKSLSAAGRQLFDVSRQGKASVNDADRLRKYLARFGLTWEAVQDQHSSS	–	–	–	4.02 h	–	–	–	–	–	–	–	–
MRKYRLSEEQRAFSYQEDGTKKNVLLRQIIAISDFNDVIAGTAGGWIDRETVLAQEGNCWIYDQNAIAFGGAVISGNTRITGTSVLWGEVYATDNVWIDNSEISQGAYISDSVTIHDSLVYGQCRIFGHALIDQHSMIVAAQGLTPDHQLLLQIYDRARVSASRIVHQAQIYGDAVVRYAFIEHRAEVFDFASIEGNEENNVWLCDCAKVYGHAQVKAGIEEDAIPTIHYSSQVAEYAIVEGNCVLKHHVLVGGNAVVRGGPILLDEHVVIQGESRITGAVIIENHVELTDHAVVEAFDGDTVHVRGPKVINGEERITRTPLAGLL	–	4.51 h	3.02 h	–	2.62 ± 0.092 h	2.39 h	–	6.16 h	3.27 h	5.74 h	–	8.26 ± 1 h
MRLAPLYRNALLLTGLLLSGIAAVQAADWPRQITDSRGTHTLESQPQRIVSTSVTLTGSLLAIDAPVIASGATTPNNRVADDQGFLRQWSKVAKERKLQRLYIGEPSAEAVAAQMPDLILISATGGDSALALYDQLSTIAPTLIINYDDKSWQSLLTQLGEITGHEKQAAERIAQFDKQLAAAKEQIKLPPQPVTAIVYTAAAHSANLWTPESAQGQMLEQLGFTLAKLPAGLNASQSQGKRHDIIQLGGENLAAGLNGESLFLFAGDQKDADAIYANPLLAHLPAVQNKQVYALGTETFRLDYYSAMQVLDRLKALF [P0AEL6]	3.63 ± 0.44 h	4.68 ± 0.25 h	5.13 h	–	5.5 ± 0.95 h	> 4 h	5.29 ± 0.068 h	11.5 ± 3.5 h	5.62 ± 0.55 h	10.4 ± 3 h	6.51 ± 0.24 h	–
MRLEVFCEDRLGLTRELLDLLVLRGIDLRGIEIDPIGRIYLNFAELEFESFSSLMAEIRRIAGVTDVRTVPWMPSEREHLALSALLEALPEPVLSVDMKSKVDMANPASCQLFGQKLDRLRNHTAAQLINGFNFLRWLESEPQDSHNEHVVINGQNFLMEITPVYLQDENDQHVLTGAVVMLRSTIRMGRQLQNVAAQDVSAFSQIVAVSPKMKHVVEQAQKLAMLSAPLLITGDTGTGKDLFAYACHQASPRAGKPYLALNCASIPEDAVESELFGHAPEGKKGFFEQANGGSVLLDEIGEMSPRMQAKLLRFLNDGTFRRVGEDHEVHVDVRVICATQKNLVELVQKGMFREDLYYRLNVLTLNLPPLRDCPQDIMPLTELFVARFADEQGVPRPKLAADLNTVLTRYAWPGNVRQLKNAIYRALTQLDGYELRPQDILLPDYDAATVAVGEDAMEGSLDEITSRFERSVLTQLYRNYPSTRKLAKRLGVSHTAIANKLREYGLSQKKNEE	6.71 ± 0.79 h	4.83 ± 0.089 h	4.73 ± 0.23 h	6.13 ± 0.71 h	4.6 ± 0.14 h	2.69 ± 0.14 h	5.844 ± 0.052 h	8.21 ± 0.57 h	4.51 ± 0.34 h	8.243 ± 0.066 h	4.84 ± 0.092 h	9.34 ± 0.13 h
